Numbering of substitutions follows the chain as printed.
T1: TNF-beta (human, UniProt P01374 35-205)
T1 construct: also called TNFβ; Tumour Necrosis Factor-beta
T1 sequence (looked up): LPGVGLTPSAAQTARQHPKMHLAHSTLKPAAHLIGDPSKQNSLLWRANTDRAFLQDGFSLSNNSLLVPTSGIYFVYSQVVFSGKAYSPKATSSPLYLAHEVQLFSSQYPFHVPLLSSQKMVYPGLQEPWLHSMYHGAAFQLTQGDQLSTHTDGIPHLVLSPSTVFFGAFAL

T2: Fas ligand (human, UniProt P48023 134-281, limits assumed)
T2 sequence (looked up): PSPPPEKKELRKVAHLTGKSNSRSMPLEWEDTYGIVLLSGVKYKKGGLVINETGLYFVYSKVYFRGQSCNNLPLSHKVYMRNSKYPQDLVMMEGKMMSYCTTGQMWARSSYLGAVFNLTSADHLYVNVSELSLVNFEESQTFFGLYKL

B1: I007B03 (scFv)
scFv: GVQLQQSGAEVKKPGSSVKVSCKASGGTFNTSGITWVRQAPGQGLEWMGWMNPNTGDTAYAQEFQGRVIMTRDTSISTAYMELSSLRSEDTAVYYCARDGSYDILTGYYIDNYMDVWGQGTMVTVSSGGGGSGGGGSGGGGSQSVLTQPASVSGSPGQSITISCTGTSSDVGGYNYVSWYQQHPGKAPKLMIYEGSKRPSGVSNRFSGSKSGNTASLTISGLQAEDEADYYCSSYTTRSTRVFGGGTKLTVLG
B2: I018C10 (scFv)
scFv: GVQLVQSGPEVKKPGASVKVSCTASGYTFTSYGVSWVRQAPGQGLEWIGWISAHNGQTKYAEKFQGRVTMTRNTSISTAYMELSSLRSEDTVVYYCARDGSYDILTGYYIDNYMDVWGKGTMVTVSSGGGGSGGGGSGGGGSSELTQDPAVSVALGQTVRITCQGDSLRSYYTNWFQQKPGQAPLLVVYAKNKRPSGIPDRFSGSSSGNTASLTITGAQAEDEADYYCHSRDSSGNHVLFGGGTKLTVLG
B3: I029F11 (scFv)
scFv: QVQLVQSRAEVKRPGASVKVSCKASGYRFGSYGITWVRQAPGQGLEWMGWISTRYGDTKSAQKVEGRVTLTTDTSTSTAYMELRSLRSDDTAVYYCARDGSYDILTGYYIDNYMDVWGRGTLVTVSSGGGGSGGGGSGGGGSQSVLTQPPSASGTPGQRVTISCSGSSSNIGSNTVNWYQRLPGAAPQLLIYNNDQRPSGIPDRFSGSKSGTSGSLVISGLQSEDEADYYCASWDDSLNGRVFGGGTKLTVLG
B4: I022D01 (scFv)
scFv: EVNLRESGGGVDQPGRSLRLSCAASGFTFSSYGMHWVRQAPGKGLEWVAVISYDGSNKYYADSVKGRFTISRDNSKNTLYLQMNSLRAEDTAVYYCAKDGYYDILTGYSYYGMDVWGQGPMVAVSSGGGGSGGGGSGGGGSSELTQDPAVSVALGQTVRITCQGDSLRSYYTNWFQQKPGQAPLLVVYAKNKRPSGIPDRFSGSSSGNTASLTITGAQAEDEADYYCNSRDSSGNHVVFGGGTKLTVLG
B5: I007H08 (scFv)
scFv: QVQLQQSGPGLVKPSQILSLTCAISGDSVASNGAAWNWIRQSPSRGLEWLGRTYYRSKWYVDYAVSVKSRITINPDTSKNQFSLQLNSVTPEDTAVYYCARDRYDILTGYYYYGMDVWGQGTMVTVSSGGGGSGGGGSGGGGSQSALTQPASVSGSRGQSITISCTGTTGDVGGYDYVSWYQQHPGKAPKLLIYGNSNRPSGVPDRFSASKSGNTASLTISGLQAEDEADYFCNTYAPPGIIMFGGGTKLTVLG
B6: I008A11 (scFv)
scFv: B5 scFv with N234S

target: T3, membrane-bound B Lymphocyte Stimulator on U937 plasma membrane preparations (human, UniProt Q9Y275 1-285); assay: phage ELISA
T3 construct: Natural protein in plasma membrane fractions of the human cell line U937 coated on ELISA plates; also called U937 plasma membranes; U937 membranes

Row | Binder | binding result
1 | B1 | binds
2 | B2 | binds
3 | B3 | binds
4 | B4 | binds
5 | B5 | binds
6 | B6 | binds

target: T4, TNF-alpha (human, UniProt P01375 77-233); assay: phage ELISA
T4 construct: also called TNFα; TNF-α
T4 sequence (P01375 77-233 limits assumed): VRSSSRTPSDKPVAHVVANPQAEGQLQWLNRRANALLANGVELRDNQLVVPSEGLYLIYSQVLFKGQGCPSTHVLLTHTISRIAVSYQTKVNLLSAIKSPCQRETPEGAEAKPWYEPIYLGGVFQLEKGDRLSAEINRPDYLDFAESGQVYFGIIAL

Row | Binder | binding result
7 | B1 | no binding
8 | B2 | no binding
9 | B3 | no binding
10 | B4 | no binding
11 | B5 | no binding
12 | B6 | no binding

target: T1, TNF-beta; assay: phage ELISA

Row | Binder | binding result
13 | B1 | no binding
14 | B2 | no binding
15 | B3 | no binding
16 | B4 | no binding
17 | B5 | no binding
18 | B6 | no binding

target: T2, Fas ligand; assay: phage ELISA

Row | Binder | binding result
19 | B1 | no binding
20 | B2 | no binding
21 | B3 | no binding
22 | B4 | no binding
23 | B5 | no binding
24 | B6 | no binding

target: T5, TRAIL (human, UniProt P50591 114-281); assay: phage ELISA
T5 construct: also called TNF-related apoptosis inducing ligand
T5 sequence (P50591 114-281 limits assumed): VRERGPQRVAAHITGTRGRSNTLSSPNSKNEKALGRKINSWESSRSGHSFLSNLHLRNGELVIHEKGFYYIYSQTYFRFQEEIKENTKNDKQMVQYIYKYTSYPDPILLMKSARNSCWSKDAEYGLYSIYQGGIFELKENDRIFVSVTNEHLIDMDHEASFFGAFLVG

Row | Binder | binding result
25 | B1 | no binding
26 | B2 | no binding
27 | B3 | no binding
28 | B4 | no binding
29 | B5 | no binding
30 | B6 | no binding

target: T6, B Lymphocyte Stimulator, soluble form (human) (human, UniProt Q9Y275 134-285, biotinylated with NHS-biotin where used as biotinylated B Lymphocyte Stimulator); assay: phage competition ELISA
T6 construct: Coated on plastic, captured on streptavidin plates, amine-coupled to a CM5 chip or free in solution, depending on the assay; also called BLyS; immobilized B Lymphocyte Stimulator

Row | Binder | binding result
31 | B1 | binds
32 | B2 | binds
33 | B3 | binds
34 | B4 | binds
35 | B5 | binds
36 | B6 | binds
